Results: patent publication US20240043859A1, “HERBICIDE-RESISTANT PROTEIN, AND GENE AND USE THEREOF” (QINGDAO KINGAGROOT CHEMICAL COMPOUND CO., LTD., priority 2020, published 2024)
Entries after “also recorded” stand apart in the source; their conditions may differ.

What was measured:
[1] = Chromogenic reaction of degrading herbicides in bacteria: 2,4-D; assay type: cell-based, Escherichia coli; conditions: recombinant E. coli expressing the gene, 2,4-D added to the medium, red = phenols
In short: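 Colour from 2,4-D degradation was detected at A510 after 5 min at room temperature, with 4-aminoantipyrine and ferricyanide added to culture supernatant in pH 10 borate. Cultures were AAD12-expressing or empty-vector (pET15b) BL21(DE3), grown overnight at 28 °C with 0.5 mM 2,4-D, 0.1 mM IPTG and 2 mM α-ketoglutarate.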

maize B104 = experiment: Herbicide-resistance capacity testing of transgenic maize (spray); assay type: in vivo; conditions: 2,4-D 4.48 kg/ha foliage spray, 14 days / 15 days after spraying
Excerpt: 1. Vector construction: the overexpression vector was altered from pCambia3300, containing a Bar resistance gene that can be used as a selection marker for bialaphos (glufosinate). The AAD-like gene, QYD42, SEQ ID NO. 83, was linked to the pCambia3300 at the BamH I restriction site by seamless cloning to construct the transgenic vector pQY2329, of which the expression cassette consisted of a maize ubiquitin-1 promoter, the AAD gene and a Nos terminator, as shown in FIG. 7-1.
2. Genetic transformation of maizes: Maize transformation was carried out by the Agrobacterium-mediated immature embryo transformation method (Jones T, Lowe K, Hoerster G, et al. Maize Transformation Using the Morphogenic Genes Baby Boom and Wuschel2. Methods Mol Biol. 2019; 1864:81-93. Doi: 10.1007/978-1-4939-8778-8 6). The Agrobacterium (EHA105) comprising the pQY2329 overexpression vector was inoculated into YEP liquid medium (containing 25 mg/L Rifampicin and 50 mg/L Kanamycin), and shaking-cultured a t 28° C., 220 rmp/min overnight until the OD600 was about 1.0-1.5, then centrifuged at 6000 rmp/min for 10 min to collect the cells into a 50 ml centrifuge tube (sterilized). After discarding the supernatant, the cells were resuspended using MS infect culture medium (containing 68.5 g/L sucrose, 36 g/L glucose, pH 5.8) to OD550=0.8. […]

B1: QYD42: AAD-like enzyme, SEQ ID NO. 83; expressed from vectors pQY2309 (Arabidopsis), pQY2329 (maize), pQY2330 (soybean) (protein)
chain: MQITPIADATFGATVTGLRLATLDDAGFARLHAAWLQHALLVFPGQFLTNAEQIGFAKRFGPIERIGGGDIVAISNVKADGTVRQHSPAEWDDMMKVIVGNMAWHADSTYMPVMAQGAVFSAEVVPPTGGRTCFADMRAAYDALDDATRALVHQRSARHSLVYSQSKLGHVQQAGSAYVGYGMDTTATPLRPLVKRHPETGRLSLLIGRHAHAIPGLEEAESERFLEDLVAWACQPPRVVAHHWTAGDVVLWDNRCLLHRAEPWDFTLPRVMWHSRLAGHPETEAAPLV
modifications: Synthetic polypeptide, QYD42, D42
- Chromogenic reaction of degrading herbicides in bacteria: 2,4-D [1]: Yes
- Chromogenic reaction of degrading herbicides in bacteria: 2,4-D ([1]; listed as D42): could degrade 2,4-D; also recorded: capable of degrading 2,4-D
- Resistance of T1 transgenic maize to 2,4-D (spray) (maize B104): grew normally without any growth inhibition; also recorded: no apparent deformity
